How the values were obtained:
Conditions in all cases: tags: R&D Systems; chain copies: 2
[1] = biological target: T1, NGF (nerve growth factor) (Homo sapiens, UniProt P01138 P01138:122-241); assay: SPR; neurite inhibition at 10 nM; no TF-1 inhibition
Protocol: The cells (2500 cells per well) were cultured for one day in an RPMI-1640 medium containing 2.5% horse serum and 1.25% fetal bovine serum in a 96 well flat-bottom plate coated with collagen type IV. […] Two days later, the cytoplasm and nuclei were stained using Cellomics Neurite Outgrowth Kit (manufactured by Thermo Scientific), and neurite length per cell was measured by Cellomics ArrayScan VTI (manufactured by Thermo Scientific). With the neurite length per cell obtained by the addition of NGF alone as inhibitory activity 0%, and that of the cell obtained by NGF free culture for 2 days as inhibitory activity 100%, the inhibitory activity of the aptamer was calculated from the neurite length per cell obtained by culturing with the addition of NGF and the aptamer in mixture.
Two NGF receptor (human TrkA and human p75) genes were introduced into TF-1 cells (ATCC Number: CRL-2003), which is a human erythroleukemic cell line, by using a retrovirus vector to give cells that highly express two receptors simultaneously and stably. The cells were suspended in an RPMI-1640 medium containing 20% fetal bovine serum, and seeded in a white 96 well flat-bottom plate at 1000 cells (50 μL) per well. […]

[2] = biological target: T1, NGF (nerve growth factor); assay: cell_activity; neurite; TF-1 0.03
NT-4 (neurotrophin-4) = biological target: T2, NT-4 (neurotrophin-4) (Homo sapiens, UniProt P34130 P34130:81-210); assay: cell_activity; TF-1
T2 sequence: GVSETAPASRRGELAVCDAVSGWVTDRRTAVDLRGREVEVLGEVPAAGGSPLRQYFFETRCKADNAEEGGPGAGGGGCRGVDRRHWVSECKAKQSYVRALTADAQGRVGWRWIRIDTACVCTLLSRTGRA

NT-3 (neurotrophin-3) = biological target: T3, NT-3 (neurotrophin-3) (Homo sapiens, UniProt P20783 P20783:139-257); assay: cell_activity; TF-1
T3 sequence: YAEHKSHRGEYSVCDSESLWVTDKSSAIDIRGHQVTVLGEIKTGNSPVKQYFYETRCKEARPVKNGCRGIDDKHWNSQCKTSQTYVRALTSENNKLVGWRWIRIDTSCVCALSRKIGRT

[3] = biological target: T1, NGF (nerve growth factor); assay: cell_activity; neurite; TF-1 0.027
[4] = biological target: T1, NGF (nerve growth factor); assay: cell_activity; neurite; TF-1 0.075
[5] = biological target: T1, NGF (nerve growth factor); assay: cell_activity; neurite; TF-1 0.035
[6] = biological target: T1, NGF (nerve growth factor); assay: cell_activity; neurite; TF-1 0.071
[7] = biological target: T1, NGF (nerve growth factor); assay: cell_activity; neurite; TF-1 0.031
Protocol: (§1) With the neurite length per cell obtained by the addition of NGF alone as inhibitory activity 0%, and that of the cell obtained by NGF free culture for 2 days as inhibitory activity 100%, the inhibitory activity of the aptamer was calculated from the neurite length per cell obtained by culturing with the addition of NGF and the aptamer in mixture.
(§2) Two NGF receptor (human TrkA and human p75) genes were introduced into TF-1 cells (ATCC Number: CRL-2003), which is a human erythroleukemic cell line, by using a retrovirus vector to give cells that highly express two receptors simultaneously and stably. The cells were suspended in an RPMI-1640 medium containing 20% fetal bovine serum, and seeded in a white 96 well flat-bottom plate at 1000 cells (50 μL) per well. […] With the amount of luminescence per well obtained by the addition of NGF alone and culture of the cells for 3 days as inhibitory activity 0%, and that of the well obtained by NGF free culture for 3 days as inhibitory activity 100%, the inhibitory activity of the aptamer was calculated from the amount of luminescence per well obtained by culturing with the addition of NGF and the aptamer in mixture.

[8] = biological target: T1, NGF (nerve growth factor); assay: cell_activity; neurite; TF-1 0.083
[9] = biological target: T1, NGF (nerve growth factor); assay: cell_activity; neurite; TF-1 0.046
[10] = biological target: T1, NGF (nerve growth factor); assay: cell_activity; neurite; TF-1 0.028
Protocol: as §1, §2

[11] = biological target: T1, NGF (nerve growth factor); assay: cell_activity; neurite; TF-1 0.025
[12] = biological target: T1, NGF (nerve growth factor); assay: cell_activity; neurite; TF-1 0.043
[13] = biological target: T1, NGF (nerve growth factor); assay: cell_activity; neurite; TF-1 0.037
[14] = biological target: T1, NGF (nerve growth factor); assay: cell_activity; neurite; TF-1 0.036
[15] = biological target: T1, NGF (nerve growth factor); assay: cell_activity; neurite; TF-1 0.030
[16] = biological target: T1, NGF (nerve growth factor); assay: cell_activity; neurite; TF-1 0.033
[17] = biological target: T1, NGF (nerve growth factor); assay: cell_activity; neurite; TF-1 0.093
[18] = biological target: T1, NGF (nerve growth factor); assay: cell_activity; neurite; TF-1 0.087
[19] = biological target: T1, NGF (nerve growth factor); assay: cell_activity; neurite; TF-1 0.051
[20] = biological target: T1, NGF (nerve growth factor); assay: cell_activity; neurite; TF-1 0.979
[21] = biological target: T1, NGF (nerve growth factor); assay: cell_activity; neurite; TF-1 0.018
Protocol: as §1, §2

[22] = biological target: T1, NGF (nerve growth factor); assay: cell_activity; neurite; TF-1 0.178
[23] = biological target: T1, NGF (nerve growth factor); assay: cell_activity; neurite outgrowth inhibition; TF-1 IC50 6.924 nM
[24] = biological target: T1, NGF (nerve growth factor); assay: SPR; 145 mM NaCl, 5.4 mM KCl, 1.8 mM CaCl2, 0.8 mM MgCl2, 20 mM Tris pH 7.6; strong inhibition of NGF-receptor binding

T1 sequence (P01138 122-241, one chain of several): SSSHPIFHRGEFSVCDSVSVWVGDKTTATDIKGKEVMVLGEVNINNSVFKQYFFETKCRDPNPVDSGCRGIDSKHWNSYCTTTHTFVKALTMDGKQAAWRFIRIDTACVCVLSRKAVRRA

B1: SEQ ID NO: 100 (ssRNA)
RNA: GGGAGAACUUCGACCAGAAGACCAAACGGACUUUAUACCUCUGAGUCGCCUAUGCUCCUAUGUGCGCAUACAUGGAUCCUC
modifications: 2'-F C/U, dA, 2'-OH G
binding result [1]: binds

B2: SEQ ID NO: 80(1) (ssRNA)
RNA: GGGUCCUGGCUAAGAGUUUCCGUCUCGUAGUCUGUUACCC
modifications: 2'-OMe G (G8,G34 2'-OH), dA, 2'-F C/U; 5',3' idT
IC50 [2]: 0.271 nM

B3: SEQ ID NO: 82(12) (ssRNA)
RNA: GGGUCCUGGAUAAGAGUUUCCGUCUCGUAUCCUGUUACCC
modifications: as 82(1) except 2'-OMe C31
IC50 (NT-4 (neurotrophin-4)): < 3 nM
IC50 (NT-3 (neurotrophin-3)): 34.7 nM
IC50 [3]: 0.127 nM

B4: SEQ ID NO: 82(5) (ssRNA)
RNA: GGGUCCUGGAUAAGAGUUUCCGUCUCGUAUCCUGUUACCC
modifications: as 82(1) except 2'-OMe C20
IC50 [4]: 0.269 nM
IC50 (NT-4 (neurotrophin-4)): < 3 nM
IC50 (NT-3 (neurotrophin-3)): 51.2 nM

B5: SEQ ID NO: 82(9) (ssRNA)
RNA: GGGUCCUGGAUAAGAGUUUCCGUCUCGUAUCCUGUUACCC
modifications: as 82(1) except 2'-OMe C26
IC50 (NT-4 (neurotrophin-4)): < 3 nM
IC50 (NT-3 (neurotrophin-3)): 34.8 nM
IC50 [5]: 0.252 nM

B6: SEQ ID NO: 82(8) (ssRNA)
RNA: GGGUCCUGGAUAAGAGUUUCCGUCUCGUAUCCUGUUACCC
modifications: as 82(1) except 2'-OMe U25
IC50 [6]: 0.284 nM

B7: SEQ ID NO: 82(20) (ssRNA)
RNA: GGGUCCUGGAUAAGAGUUUCCGUCUCGUAUCCUGUUACCC
modifications: as 82(1) except 2'-OMe U4,C6,U11,C21,U23,C26,U30,C32,U35,C38-40
IC50 (NT-3 (neurotrophin-3)): < 30 nM
IC50 [7]: 0.244 nM

B8: SEQ ID NO: 82(22) (ssRNA)
RNA: GGGUCCUGGAUAAGAGUUUCCGUCUCGUAUCCUGUUACCC
modifications: as 82(1) except 2'-OMe U4,C6,U11,C21,U23,C26,U28,U30,C32,U35,C38-40
IC50 (NT-3 (neurotrophin-3)): < 30 nM
IC50 [8]: < 0.1 nM

B9: SEQ ID NO: 82(11) (ssRNA)
RNA: GGGUCCUGGAUAAGAGUUUCCGUCUCGUAUCCUGUUACCC
modifications: as 82(1) except 2'-OMe U30
IC50 (NT-4 (neurotrophin-4)): 3.42 nM
IC50 (NT-3 (neurotrophin-3)): 38.1 nM
IC50 [9]: 0.253 nM

B10: SEQ ID NO: 82(18) (ssRNA)
RNA: GGGUCCUGGAUAAGAGUUUCCGUCUCGUAUCCUGUUACCC
modifications: as 82(1) except 2'-OMe C40
IC50 (NT-4 (neurotrophin-4)): < 3 nM
IC50 (NT-3 (neurotrophin-3)): 38.7 nM
IC50 [10]: 0.244 nM

B11: SEQ ID NO: 82(17) (ssRNA)
RNA: GGGUCCUGGAUAAGAGUUUCCGUCUCGUAUCCUGUUACCC
modifications: as 82(1) except 2'-OMe C39
IC50 [11]: 0.127 nM
IC50 (NT-4 (neurotrophin-4)): < 3 nM
IC50 (NT-3 (neurotrophin-3)): < 30 nM

B12: SEQ ID NO: 82(15) (ssRNA)
RNA: GGGUCCUGGAUAAGAGUUUCCGUCUCGUAUCCUGUUACCC
modifications: as 82(1) except 2'-OMe U35
IC50 [12]: 0.127 nM
IC50 (NT-4 (neurotrophin-4)): 8.35 nM
IC50 (NT-3 (neurotrophin-3)): < 30 nM

B13: SEQ ID NO: 167 (ssRNA)
RNA: GGGUCCUGGAUAAGAGTUUCCGUCUCGUAUCCTGUUACCC
modifications: as 82(48) except dT17,dT33
IC50 [13]: 0.128 nM

B14: SEQ ID NO: 82(4) (ssRNA)
RNA: GGGUCCUGGAUAAGAGUUUCCGUCUCGUAUCCUGUUACCC
modifications: as 82(1) except 2'-OMe U11
IC50 [14]: 0.139 nM
IC50 (NT-4 (neurotrophin-4)): 3.37 nM
IC50 (NT-3 (neurotrophin-3)): 30.4 nM

B15: SEQ ID NO: 82(7) (ssRNA)
RNA: GGGUCCUGGAUAAGAGUUUCCGUCUCGUAUCCUGUUACCC
modifications: as 82(1) except 2'-OMe U23
IC50 (NT-4 (neurotrophin-4)): 3.74 nM
IC50 (NT-3 (neurotrophin-3)): < 30 nM
IC50 [15]: 0.143 nM

B16: SEQ ID NO: 82(10) (ssRNA)
RNA: GGGUCCUGGAUAAGAGUUUCCGUCUCGUAUCCUGUUACCC
modifications: as 82(1) except 2'-OMe U28
IC50 (NT-4 (neurotrophin-4)): < 3 nM
IC50 (NT-3 (neurotrophin-3)): 35.3 nM
IC50 [16]: 0.128 nM

B17: SEQ ID NO: 82(27) (ssRNA)
RNA: GGGUCCUGGAUAAGAGUUUCCGUCUCGUAUCCUGUUACCC
modifications: as 82(1) except dC5
IC50 [17]: 0.25 nM

B18: SEQ ID NO: 82(26) (ssRNA)
RNA: GGGUCCUGGAUAAGAGUUUCCGUCUCGUAUCCUGUUACCC
modifications: as 82(25) except 2'-OMe C20
IC50 (NT-3 (neurotrophin-3)): < 30 nM
IC50 [18]: 0.13 nM

B19: SEQ ID NO: 82(3) (ssRNA)
RNA: GGGUCCUGGAUAAGAGUUUCCGUCUCGUAUCCUGUUACCC
modifications: as 82(1) except 2'-OMe C6
IC50 (NT-4 (neurotrophin-4)): 9.36 nM
IC50 (NT-3 (neurotrophin-3)): 42 nM
IC50 [19]: 0.255 nM

B20: SEQ ID NO: 88 (ssRNA)
RNA: GGGUCCUGUUCAAGAGUUUCCGUCUCGUGAACUGUUACCC
modifications: 2'-F C/U, dA, 2'-OH G
IC50 [20]: 0.572 nM

B21: SEQ ID NO: 78(1) (ssRNA)
RNA: GGGUCCUGGCCAAGAGUUUCCGUCUCGUGGUCUGUUACCC
modifications: 2'-OMe G (G8,G34 2'-OH), dA, 2'-F C/U; 5',3' idT
IC50 [21]: 0.12 nM

B22: SEQ ID NO: 87(5) (ssRNA)
RNA: GGGUCCUGCUCAAGAGUUUCCGUCUCGUGGGCUGUUACCC
modifications: as 87(4) plus 2'-OMe A15,A37; no 5' idT
IC50 [22]: 0.078 nM

B23: SEQ ID NO: 81 (ssRNA)
RNA: GGGUCCUGGUGAUAAGUUUCCGUCUUAUCACCUGUUACCC
modifications: 2'-F C and U; 2'-OH G; 2'-H (deoxy) A
IC50 [23]: 0.765 nM

B24: SEQ ID NO: 99 (ssRNA)
RNA: GGGAGAACUUCGACCAGAAGUCCAAACGGGACUUUAUACCUCUGAGUCGCCUUUGCUCCUAUGUGCGCAUACAUGGAUCCUC
modifications: 2'-F C/U, dA, 2'-OH G
binding result [1]: binds

B25: SEQ ID NO: 1 (ssRNA)
RNA: GGGAGAACUUCGACCAGAAGUUGACGACCAACUCGUCUCUUAUGGAUUUACGUGAACCCGUAUGUGCGCAUACAUGGAUCCUC
modifications: 2'-F C and U; 2'-OH G; 2'-H (deoxy) A
binding result [24]: binds
